In this assay the target is human Low Density Lipoprotein receptor (hLDL-R) (human, UniProt P01130 22-860). Put plainly: cell-based or functional assay.

The text below walks through data of US20180023071A1 (PRONASCI, published 2018).

Bridges are numbered along the chain shown (N, C = ends). Where no end group is shown, it is not given here.

human Low Density Lipoprotein receptor (hLDL-R), sequence (P01130 22-860): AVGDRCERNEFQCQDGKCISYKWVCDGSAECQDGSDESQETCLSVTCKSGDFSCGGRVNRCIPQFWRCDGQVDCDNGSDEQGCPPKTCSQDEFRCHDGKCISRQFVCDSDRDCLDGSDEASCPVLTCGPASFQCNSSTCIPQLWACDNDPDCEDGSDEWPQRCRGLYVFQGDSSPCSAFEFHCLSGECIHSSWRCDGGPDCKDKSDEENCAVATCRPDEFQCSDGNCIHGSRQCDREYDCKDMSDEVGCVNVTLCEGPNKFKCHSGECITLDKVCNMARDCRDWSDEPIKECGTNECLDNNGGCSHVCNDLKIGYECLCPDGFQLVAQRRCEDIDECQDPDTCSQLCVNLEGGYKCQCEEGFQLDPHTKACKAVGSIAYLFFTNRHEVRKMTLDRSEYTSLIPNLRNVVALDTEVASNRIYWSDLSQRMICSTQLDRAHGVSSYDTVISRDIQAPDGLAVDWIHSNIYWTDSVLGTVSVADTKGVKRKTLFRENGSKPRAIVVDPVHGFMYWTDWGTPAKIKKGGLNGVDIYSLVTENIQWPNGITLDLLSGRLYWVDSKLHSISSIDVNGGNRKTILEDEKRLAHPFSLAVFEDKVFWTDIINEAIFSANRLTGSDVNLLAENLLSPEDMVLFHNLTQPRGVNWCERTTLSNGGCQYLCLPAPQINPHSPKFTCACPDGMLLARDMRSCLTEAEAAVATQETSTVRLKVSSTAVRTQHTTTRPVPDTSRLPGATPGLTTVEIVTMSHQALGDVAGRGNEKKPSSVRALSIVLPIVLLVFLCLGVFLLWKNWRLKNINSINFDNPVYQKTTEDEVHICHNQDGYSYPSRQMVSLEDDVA

GEDIIGASSDCSTCFVSQSG (disulfide 11-14) [CP3 (Loop-3 peptide), S-S bridged cyclic hPCSK9 365-384]: the “LDL-R level in HepG2 cells (western blot, relative to TR), CP3 at 50 µM” value is approximately 3.5 fold.
